Data published in patent US20250206841A1 (ADEPT THERAPEUTICS, published 2025).

T1: human Trop-2-His protein (human, UniProt P09758 27-274)
T1 construct: extracellular domain; Assay paragraphs say only 'Trop-2-His'; also called hTrop-2; Kactus Cat #TRP-HM121; not shown: His tag
T1 sequence (looked up): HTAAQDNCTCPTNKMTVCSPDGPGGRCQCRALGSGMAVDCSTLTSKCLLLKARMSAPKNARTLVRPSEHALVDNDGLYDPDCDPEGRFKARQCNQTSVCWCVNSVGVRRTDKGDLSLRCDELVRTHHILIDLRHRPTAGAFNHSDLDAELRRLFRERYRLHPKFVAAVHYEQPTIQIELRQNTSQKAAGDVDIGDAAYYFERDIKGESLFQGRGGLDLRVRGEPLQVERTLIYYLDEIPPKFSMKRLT

T2: cynomolgus Trop-2-His protein (cynomolgus, UniProt P09758 27-274 (human entry))
T2 construct: also called cynmolgus Trop-His; Kactus Cat #TRP-CM121; not shown: His tag
T2 chain: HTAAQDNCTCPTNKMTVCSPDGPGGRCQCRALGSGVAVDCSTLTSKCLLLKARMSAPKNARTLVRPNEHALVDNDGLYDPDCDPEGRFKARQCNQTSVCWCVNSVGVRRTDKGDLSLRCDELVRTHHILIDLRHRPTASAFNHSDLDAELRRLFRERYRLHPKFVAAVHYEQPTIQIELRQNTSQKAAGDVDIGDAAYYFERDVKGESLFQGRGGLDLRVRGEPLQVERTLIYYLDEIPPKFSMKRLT

B1: 5D4 (antibody, V domains shown)
VH: QQLEESGGGLVKPEGSLTLTCKGSGFDFSGTYWMWWVRQAPGKGLEWIACIYVGSGSSTYYASWAKGRFTISSTSSTAVTLQATSLTAADTATYFCARGATNNVFMNYFNLWGPGTLVTVSS
VL: FEMTQTPSSVSEPVGGTVTIKCQASEDISSNLGWYQQKPGQPPKLLIYGASTLASGVPSRFKGSGSGTEFTLTISDLECADAATYYCQTSYYIDDGVNGFGGGTEVVVK
notes: Rabbit-derived clone; LEM construct: VH + rabbit IgG CH1 + human IgG1 CH2-CH3
B2: 1D10 (antibody, V domains shown)
VH: QEQLKESGGGLVQPGGSLTLSCKASGFDFNYYGVSWVRQAPGKGLEWIGYIYPAYHNTYYATWVNGRFTISSHNAQNTLYLQLNTLTAADTATYFCARDAGSTDYNLNLWGPGTLVTVSS
VL: DVVMTQTPASVEVAVGGTVTIKCQASEDIESYLAWYQQKPGQPPRLLIYEASKLASGVSSRFSGGGYGTDFTLTISGVECADAATYYCHQALTIGNVDNPFGGGGEVVVK
notes: as for B1
B3: 66A1 (antibody, V domains shown)
VH: QEQLKESGGGLVQPGGSLKLSCKASGFDFNNYGVSWVRQAPGKGLEWIAYIYPAFHNTYYASWVNGRFTISSHNAQNTLYLQLNSLTAADTATYFCARDAGGTDYAYNLWGPGTLVTVSS
VL: DVVMTQTPASVEAAVGGTVSINCQASEDIESYLAWYQQKPGQPPKLLIYKASTLASGVSSRFKGSGSGKQFTLTISGVECADAATYYCQQVLTIGNVDNPFGGGSEVVVK
notes: as for B1
B4: 72F12 (antibody, V domains shown)
VH: QEQLKESGGGLVQPGGSLKLSCKASGFDFNNYGVSWVRQAPGKGLEWIAYIYPAFHNTYYATWVNGRFTISSHNAQNTLYLQLNSLTAADTATYFCARDAGSVDYNFNLWGPGTLVTVSS
VL: DVVMTQTPASVEVAVGGTVTIKCQASKNIDSNLAWYQQKPGQPPKQLIYAASTLASGVSSRFSGSGYGAEFTLTISGVECADAATYYCQQALTIGNVDNPFGGGSEVVVK
notes: as for B1
B5: 74F11/15F5 (antibody, human IgG1, V domains shown)
VH: QEQLKESGGGLVQPGGSLKLSCKASGFDFNNYGMSWVRQAPGKGLEWIAYIYPAFHNTYYANWVNGRFTISSDNAQNTVDLQLNSLTAADTATYFCARDAGSTDYNFNLWGPGTLVTVSS
VL: DVVMTQTPASVEAAVGGTVTIKCQASEDIERYLAWYQQKPGQPPKLLIYEASKLPSGVSSRFSGSGYGTEFTLTISGVECADAATYYCQQALTIGYVDNPFGGGSEVVVK
notes: LEM construct: VH + rabbit IgG CH1 + human IgG1 CH2-CH3
B6: 65D5 (antibody, V domains shown)
VH: QEQLKESGGGLVQPGGSLKLSCKASGFDFNAYGVSWVRQAPGKGLEWIAYIYPAFHNTYYATWVNGRFTISSHNAQNTLYLQLNTLTAADTATYFCARDAGTTDYNFNLWGPGTLVTVSS
VL: DIVMTQTPASVSEPVGGTVTIKCQASQSISSYLAWYQQKPGQPPKLLIYEATKLTSGVSSRFSGSGYGTEFTLTISGVECADAATYYCQQALTVGDVDNPFGGGSEVVVK
notes: as for B1
B7: 63H3 (antibody, V domains shown)
VH: QEQLKESGGGLVQPGGSLKLSCKASGFDFNSYGVSWVRQAPGKGLEWIAYIYPAFHNAYYANWVNGRFTISSDNAQNTVDLQLNSLTAADTATYFCARDAGGTDYNYNLWGPGTLVTVSS
VL: DVVMTQTPASVEVAVGGTVTLKCQASEDIESYSAWYQQKPGQPPNLLIYEASKLASGVSSRFSGSGYGTEFTLTISGVECADAATYYCQQALTIGNVDNPFGGGSEVVVR
notes: as for B1
B8: 62E3 (antibody, V domains shown)
VH: QEQLKESGGGLVQPGGSLKLSCKASGFDFNEYGVSWVRQAPGKGLEWIAYIYPAFHNTYYATWVNGRFTISSHNAQNTLYLQLNTLTAADTATYFCARDAGTTDYNFNLWGPGTLVTVSS
VL: DVVMTQTASPVSAAVGGTVTIKCQASEDIESYLAWYQQKPGQPPKLLIYEASKLASGVSSRFSGSGYGTEFTLTISGVECADAATYYCQQALTIGNVDNPFGGGSEVVVK
notes: as for B1
B9: 9F7 (antibody, V domains shown)
VH: QEQLKESGGGLVQPGGSLTLSCKASGFDFNNYGVSWVRQAPGKGLEWIGYIYPAYHNTYYATWVNGRFTISSHNAQNTLYLQLNTLTAADTATYFCARDTGSTDYNFNLWGPGTLVTVSS
VL: DVVMTQTPASVEVAVGGTVTIKCQASEDIESYLAWYQQKPGQPPKLLIYEASKLASGVSSRFSGGGYGTEFTLTISGVECADAATYYCQQALTVGNVDNPFGGGSEVVVK
notes: as for B1
B10: 9D7 (antibody, V domains shown)
VH: QSLEESGGDLVQPGASLTLTCKASGFDLNNYSILWVRQAPGKGLEWIGCIYISGGSTYYANWAKGRFAISKTSSTTVTLQMTSLTAADTATYFCARDDGTASYYLNLWGPGTLVTVSS
VL: YDMTQTPASVSEPVGGTVTIKCQASEDIYKLLAWYQQKPGQPPKLLIYAASDLESGVPSRFKGRGSGTDYTLTISDLECADAATYYCQQAYTIGNIDNSFGGGTEVVVK
notes: as for B1
B11: 10A9 (antibody, V domains shown)
VH: QSLEESGGDLVQPGASLTLTCKASGFDLNNYAMLWVRQAPGKGLEWIGCIYISGGTTYFASWATGRFAISKTSSTTVTLQMTSLTAADTATYFCARDDGTTSYYLNLWGPGTLVTVSS
VL: YDMTQTPASVSAAVGGTVTIKCQASEDIYSLLAWYQQKPGQPPKLLIYGASNLESGVPSRFKGSGSGTEYTLTISDLECDDAATYYCQQAYTIGNIDNAFGGGTEVVVK
notes: as for B1

Tests used:
human Trop-2-His protein = target: T1, human Trop-2-His protein; assay: BLI (Gator Prime), LEM supernatant Ab on HFC probe
Method: (§1) After three times of regeneration and neutralization of HFC probe (Gator, Cat #160003), LEM transfection supernatant samples to be tested in K buffer was diluted 1:1 in K buffer and immobilized onto HFC probe. […] The association and dissociation of human or cynomolgus Trop-2-His antigen from antibody was measured on BLI machine Gator Prime. Affinity was calculated using Gator Bio analysis software. Blank control was used for reference subtraction. 1 μg/ml of Sacituzumab govitecan was used as positive control.
(§2) Table 23 below summarizes the binding affinity of exemplary anti-Trop-2 antibodies in LEM transfection supernatant samples to human and cynomolgus Trop-2 using Gator.

[1] = target: T2, cynomolgus Trop-2-His protein; assay: BLI (Gator Prime), LEM supernatant Ab on HFC probe
Method: as §1, §2

Binder | Kd (human Trop-2-His protein) [nM] | koff (human Trop-2-His protein) [s⁻¹] | kon (human Trop-2-His protein) [M⁻¹ s⁻¹] | Kd [1] [nM] | koff [1] [s⁻¹] | kon [1] [M⁻¹ s⁻¹]
B1 | 0.28 | 0.0001 | 358000 | 0.256 | 0.0001 | 577000
B2 | 0.53 | 0.00027 | 518000 | 0.361 | 0.00027 | 688000
B3 | 0.426 | 0.00028 | 656000 | 0.367 | 0.00032 | 869000
B4 | 0.574 | 0.00038 | 666000 | 0.526 | 0.00047 | 898000
B5 | 0.323 | 0.00017 | 526000 | 0.264 | 0.00017 | 758000
B6 | 0.656 | 0.00046 | 706000 | 0.628 | 0.00061 | 972000
B7 | 0.22 | 0.00016 | 704000 | 0.218 | 0.00016 | 740000
B8 | 0.623 | 0.00038 | 607000 | 0.685 | 0.00045 | 651000
B9 | 0.11 | 5.8e-05 | 530000 | 0.145 | ~0.000112 | 774000
B10 | 0.113 | 3.9e-05 | 342000 | 0.117 | 3.9e-05 | 528000
B11 | 0.142 | 5.3e-05 | 372000 | 0.108 | 5.3e-05 | 569000
